The values that follow are results of earlier work, collected in paper PMC7948954.

Some targets named below: Mad1 (UniProt Q05195); Pf1 (UniProt Q96QT6); SAP30 (UniProt O88574).
Data set [1] addresses Col10 (Arabidopsis thaliana) (UniProt Q9LUA9).
For data set [2], the target named is DREB2a (Arabidopsis thaliana) (UniProt O82132).
For data set [3], the target named is ANAC087 (Arabidopsis thaliana) (UniProt Q9FK44).
The target in data set [4] is ANAC013 (Arabidopsis thaliana) (UniProt F4IED2).
In data set [5] the target is STO (Arabidopsis thaliana) (UniProt Q96288).
Sequence of UniProt Q96288 (Q96288 whole entry): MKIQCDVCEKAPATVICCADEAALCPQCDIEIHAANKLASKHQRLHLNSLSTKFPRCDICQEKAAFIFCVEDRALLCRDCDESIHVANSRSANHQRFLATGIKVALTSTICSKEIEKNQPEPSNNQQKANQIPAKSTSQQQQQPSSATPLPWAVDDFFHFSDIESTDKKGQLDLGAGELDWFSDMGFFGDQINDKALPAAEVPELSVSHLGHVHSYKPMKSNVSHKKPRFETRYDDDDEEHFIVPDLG

Sequence of UniProt F4IED2 (F4IED2 whole entry): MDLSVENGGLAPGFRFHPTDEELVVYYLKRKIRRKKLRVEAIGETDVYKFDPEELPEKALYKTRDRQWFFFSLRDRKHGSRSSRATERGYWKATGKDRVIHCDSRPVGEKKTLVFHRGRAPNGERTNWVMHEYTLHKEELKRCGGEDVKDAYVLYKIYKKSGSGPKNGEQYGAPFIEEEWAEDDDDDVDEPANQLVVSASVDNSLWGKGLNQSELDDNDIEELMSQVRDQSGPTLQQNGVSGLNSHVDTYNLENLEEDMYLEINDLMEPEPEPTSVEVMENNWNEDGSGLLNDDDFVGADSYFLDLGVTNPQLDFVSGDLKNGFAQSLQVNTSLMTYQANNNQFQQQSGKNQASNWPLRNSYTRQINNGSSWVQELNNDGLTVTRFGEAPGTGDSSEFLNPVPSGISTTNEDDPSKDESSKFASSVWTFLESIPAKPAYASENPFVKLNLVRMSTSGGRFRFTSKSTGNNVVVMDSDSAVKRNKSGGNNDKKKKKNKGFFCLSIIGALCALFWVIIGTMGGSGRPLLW
Sequence of UniProt O82132 (O82132 whole entry): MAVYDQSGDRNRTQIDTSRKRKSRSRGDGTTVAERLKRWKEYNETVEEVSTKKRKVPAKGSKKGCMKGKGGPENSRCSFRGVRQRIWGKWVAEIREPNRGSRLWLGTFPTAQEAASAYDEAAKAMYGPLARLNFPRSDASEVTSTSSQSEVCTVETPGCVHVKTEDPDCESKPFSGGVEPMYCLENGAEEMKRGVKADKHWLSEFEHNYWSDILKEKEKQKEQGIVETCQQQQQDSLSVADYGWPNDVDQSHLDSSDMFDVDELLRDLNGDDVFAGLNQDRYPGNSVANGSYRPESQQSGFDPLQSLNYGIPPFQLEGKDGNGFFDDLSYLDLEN
Sequence of UniProt Q9LUA9 (Q9LUA9 whole entry): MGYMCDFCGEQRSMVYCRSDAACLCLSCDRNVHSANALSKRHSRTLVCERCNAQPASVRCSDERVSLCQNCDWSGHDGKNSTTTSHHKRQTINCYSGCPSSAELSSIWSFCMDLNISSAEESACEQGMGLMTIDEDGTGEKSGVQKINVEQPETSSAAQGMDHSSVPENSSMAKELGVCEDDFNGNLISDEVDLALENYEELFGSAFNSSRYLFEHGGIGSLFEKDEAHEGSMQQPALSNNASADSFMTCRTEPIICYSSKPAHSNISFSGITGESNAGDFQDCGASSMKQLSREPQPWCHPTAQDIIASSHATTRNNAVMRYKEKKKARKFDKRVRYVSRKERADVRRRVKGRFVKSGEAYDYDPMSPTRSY
Sequence of UniProt Q96QT6 (Q96QT6 202-241): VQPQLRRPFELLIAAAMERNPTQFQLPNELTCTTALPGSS
Sequence of UniProt O88574 (O88574 130-220): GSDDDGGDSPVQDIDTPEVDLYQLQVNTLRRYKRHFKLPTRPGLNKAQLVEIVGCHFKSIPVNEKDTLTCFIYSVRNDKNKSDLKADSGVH
Sequence of UniProt Q05195 (Q05195 5-24): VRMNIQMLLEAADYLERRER
Sequence of UniProt Q9FK44 (Q9FK44 whole entry): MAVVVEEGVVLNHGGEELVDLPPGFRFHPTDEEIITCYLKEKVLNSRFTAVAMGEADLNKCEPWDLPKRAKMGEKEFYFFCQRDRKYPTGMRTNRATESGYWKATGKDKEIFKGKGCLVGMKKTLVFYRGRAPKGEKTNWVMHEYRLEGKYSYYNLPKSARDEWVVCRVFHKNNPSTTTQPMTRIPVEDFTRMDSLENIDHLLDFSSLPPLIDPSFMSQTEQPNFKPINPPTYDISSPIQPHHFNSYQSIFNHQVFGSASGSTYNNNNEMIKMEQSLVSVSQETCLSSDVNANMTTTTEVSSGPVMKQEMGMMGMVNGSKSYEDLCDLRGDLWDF

As for RCD1 RST (from UniProt Q8RY59), the Kd was 418 nM in data set [1]; 16 nM in data set [2]; 1800 nM in data set [3]; 9 nM in data set [4]; 90 nM in data set [5].

With Sin3 PAH2 (from UniProt Q60520), the results for the Kd with Mad1 and with Pf1 were 50 nM and 2000 nM, respectively.

Take Sin3a PAH3 (from UniProt Q60520): the dissociation constant (Kd) with SAP30 is 9 nM.

By Kd is commonly meant the concentration at which binding is half-saturated.
